# Data from the DeepSol protein solubility set.
# Test: soluble on expression in E. coli; label from the status in PepcDB or PDB records
row,Sequence,soluble on expression in E. coli
1,MLTFNDNKAGMNGLDKEKITKVIEENTSASYSSFSKKQQSRIEEKVLEIKNRLQTATREERQKSEILMENLEMKLESSRDLSRDCVCIDMDAYFAAVEMRDNPALRTVPMAVGSSAMLSTSNYLARRFGVRAGMPGFISNKLCPSLTIVPGNYPKYTKVSRQFSQIFMEYDSDVGMMSLDEAFIDLTDYVASNTEKKTFKRHRFGGDCPCWLPRFDENENTLEDLKIEESICPKCEKSRKIYYDHVEFGTGREEAVREIRFRVEQLTGLTCSAGIASNFMLAKICSDLNKPNGQYVLENDKNAIMEFLKDLPIRKVGGIGRVCEAQLKAMDIQTVGDMNLKKNLYPLCFTPLSQESFLRTALGLPGRPSESDPRRKSISVERTFSPTSDFNILLEEHQEICRMLEEDVRKSGIVGGKTVTLKLKLSSFDVLTRSLTPSDVVKSLEDIQKFSLELLEKEKGKEIRLLGVRLSQLIFEEDEKKRSKTVCQKILKTITDKYKAMFSSIFLRHFISDHRVLE,not soluble
2,MGNSLHQIKCCTSFIHCQNAAVDAPSIAKTLADYLYPAFFHQDLPAPLKISVTGCPNQCGGGVEADIGISGYFATVPRVDDAGLMAANIDFGHLISGCPVGAIRPRQVEGGTTVVINAERCIRCTSCIQVAPEGIKPGPERFVAIAVGGHGGNNRRGPEMAAVVFSRVPARPLDYAAICERVQRIIACWRDRGKRGERLAGFLERLEHHHHHH,not soluble
3,SLVKSTSCTTIDFMNMSQLTERTFTSSESLSSLSLFLSLARGQCRPGKFWHRRSFRQKFLLRSLIMPRLSVEWMNELSHWPNLNVLLTRQPRLPVRLHRPYLAANLSRKQLLEALRYHYALLRGCMSAEEFSLYLNTPGLQLAKLEGKNGEQFTLELTMMISMDKEGDSTILFRNSEGIPLAEITFTLCEYQGKRTMFIGGLQGAKWEIPHQEIQNATKACHGLFPKRLVMEAACLFAQRLQVEQIIAVSNETHIYRSLRYRDKEGKIHADYNAFWESVGGVCDAERHYRLPAQIARKEIAEIASKKRAEYRRRYEMLDAIQPQMATMFRG,not soluble
4,MGSDKIHHHHHHMMSGHNKWANIKHRKMAQDAKKSKIFTKLIREIIVAAREGGGNIETNPRLRAAVERARAENMPKENIERAIKRGTGELEGVDYQEVIYEGYAPGGVAVYIRALTDNKNRTAQELRHLFNKYGGSLAESGSVSWIFERKGVIEISRDKVKDLEELMMIAIDAGAEDIKDAEDPIQIITAPENLSEVKSKLEEAGYEVEAKVTFIPKNTVKVTGKDAEKVLEFLNALEDMDDVQEVYSNFEMDDKEMEEILSRLEG,not soluble
5,MKNFEWNTSFSFAYMNNEVKHLYGEYENVLDANGNIVGSKEKDEYGKWWIGRPISAIWDYRVTGIWQPDEIEEAKKVGQLPGDPKVANNYTEDDIISSDGSRIPVYNDKDKEFLGQTTSPYILSMRNNFTILKNIDFSFNLYSCIGSKMKDTSYLNQVNASEIDYGLNQSIKEYWTPEHQSNTYARLNSKGPTGVNSPARYIDRSFIRLENISIGYTFPKSIVSRWGLSNLKVYGTIRNAALWTMSHWKLNDIETGGLAPRTYSLGINVTL,not soluble
6,GPGSMLSRIKKQQAETRDAAGQSHSSGGGPSTASSEPVAILRLKKDLDNLDGIRSTIDIPDPQNMLRMKVTVRPPYPSIWQGGIFEFLLEFREDYPYEGPRVRYLGPYRIWHPNIEGDEYMEGEGGLRGDVKNTWGVCLSFQTEWKPTMSLRDIIIMIELLFQDPNPDDPLHGTAKQAAQMMKDNPAKFRDKARRWMRGGYIE,soluble
7,MSTAEFAQLLENSILSPDQNIRLTSETQLKKLSNDNFLQFAGLSSQVLIDENTKLEGRILAALTLKNELVSKDSVKTQQFAQRWITQVSPEAKNQIKTNALTALVSIEPRIANAAAQLIAAIADIELPHGAWPELMKIMVDNTGAEQPENVKRASLLALGYMCESADPQSQALVSSSNNILIAIVQGAQSTETSKAVRLAALNALADSLIFIKNNMEREGERNYLMQVVCEATQAEDIEVQAAAFGCLCKIMSKYYTFMKPYMEQALYALTIATMKSPNDKVASMTVEFWSTICEEEIDIAYELAQFPQSPLQSYNFALSSIKDVVPNLLNLLTRQNEDPEDDDWNVSMSAGACLQLFAQNCGNHILEPVLEFVEQNITADNWRNREAAVMAFGSIMDGPDKVQRTYYVHQALPSILNLMNDQSLQVKETTAWCIGRIADSVAESIDPQQHLPGVVQACLIGLQDHPKVATNCSWTIINLVEQLAEATPSPIYNFYPALVDGLIGAANRIDNEFNARASAFSALTTMVEYATDTVAETSASISTFVMDKLGQTMSVDENQLTLEDAQSLQELQSNILTVLAAVIRKSPSSVEPVADMLMGLFFRLLEKKDSAFIEDDVFYAISALAASLGKGFEKYLETFSPYLLKALNQVDSPVSITAVGFIADISNSLEEDFRRYSDAMMNVLAQMISNPNARRELKPAVLSVFGDIASNIGADFIPYLNDIMALCVAAQNTKPENGTLEALDYQIKVLEAVLDAYVGIVAGLHDKPEALFPYVGTIFQFIAQVAEDPQLYSEDATSRAAVGLIGDIAAMFPDGSIKQFYGQDWVIDYIKRTRSGQLFSQATKDTARWAREQQKRQLSL,soluble
8,MDLSTSGSLPCHLPLSLLTNLQTPPIDTSFSSPPATSSSSLLSPSPSSAFRPVVPKSLMNPQPAMDTFYMSAIQSLVVSTTNDDQYSEHGALEGSKSLAKDENASTSAGTILCQVCSDKASGFHYGVFACEGCKGFFRRSIQQKITYRACTRAEDCLILRNNRNRCQCCRLKKCLAVGMSRDAVRFGRVPKREKARMFEEMQKTNVQSQRDQIAIQYENLTEVMHKINQAFGTLQATLEKCTGPIYTDRCPITSNFIVIPLKAAIDFANSIPAFLSITQTQRVHLLQNSVFDVMLLASASASTSQHFPPGGLTYDQSSANPIIPQAIQSISARIRQLPPQTVPILTAIAVCQADLLPESQQPMLLAERLWCVLGKLGGIQSLATAPSLLADVRTLRQWHSDRLRQMSQISQHFSQNLLIAPVAAAAPVLLPPAFLSPPASATSTSSSSVKSEFIERHPSIASLLERPRRISSSGAQEPLNLSLPHVRHQVKRDVDSDEQLEEMKVSPVPTTLSE,not soluble
9,MSLKINAILDQSNASAEKVDAYQVQLTNGISEAKNIADEAGKEAVQIATDAGNQANETANQAMNNAKTAIMIAGNAVSTANNNKQEFDTLRNDFDQLVAEAGDSNPEIVQARTDTQGIKQATLANRLQIDLNDRMTKADGISLLAKPTTVKMKLDFNGKTAGNTATNANSYSTDFTAKILKKPTEVWEEVSQADYNKMASRDDEGVKTGSTQSGVIPQQLAAFNLVEAAKKLIPQMFETVTTDEAVAFIRQNVQFFTINQRVKAAAPNNQTIKIATYLPTTDNWVTQIQESAKEFGDFSIQINDQNFITDEGFIYLMSYTDSSNGVTPASLEVDYVGLHIGLSVDAQAVLAKSGFVQAEQLNTHMENQDNPHQVTAEQVGLGNVENYGFASDSEAVAGTLTSKYMHPKNVAEAIKGQAVTQTGDQEIAGVKNFVTMPTVNGVPLESSRMAIYEASGVGEVEAKYQAAFNKDNMKFVLIRVGNRVDAFVRCNLSDPTKLNNNLVKVFTVPTGYTLSTKITKGIWNLALTAMQYTFPQPNCAGLYEMGNQGILFGANRAGNIYLQGSWYTDDPFPTKEGHHHHHH,soluble
10,VAASWREQFIRAEQTHWDAVTETASETYWEGGVLSDVTALAPDPATLFISNSMPIRDMDRFGGPRDADLTVLGNRGASGIDGITSTALGAGSATSDPLVLVTGDLAYYHDMNGLLALGRCAVDATVVLLNNDGGGIFHMLPIEDHPTFEDQFRTPHGLDFEPTEALYSLQFERVADRRQFRERFAESVQTDGTQVIEVRFDAGDSHAVRDQLTE,not soluble
11,MTQLKPGACWSDNPKKVLEMLSPMNIIAITRSIPENTPNSWFIYWLTKVEEGEVRENIYAISPTKLEILPDLVKKALKLGYDGVYIDGIEALVIENGFKSVAKFLLHIKDIVLAENKFIILTLDPRALKEEEIKIIEKEFKKLELSLEHHHHHH,soluble
12,ANSFLEEMKKGHLERECMEETCSYEEAREVFEDSDKTNEFWNKYKDGDQCETSPCQNQGKCKDGLGEYTCTCLEGFEGKNCELFTRKLCSLDNGDCDQFCHEEQNSVVCSCARGYTLADNGKACIPTGPYPCGKQTLE,soluble
